Consider one molecule from US20230192861A1.

Assay [1] addresses human B7-H3 expressed on the surface of human cancer cell lines (human) (UniProt Q5ZPR3). Put plainly: FACS on OVCAR-3 cells, 10 ug/ml.
For assay [2] the target is unchanged. In words: FACS on HCT116 cells, 10 ug/ml.
For assay [3] the target is unchanged. Put plainly: FACS on Panc-1 cells, 10 ug/ml.
The target is the same in assay [4]. Put plainly: FACS on HT29 cells, 10 ug/ml.
The target is the same in assay [5]. In words: FACS on 786-0 cells, 10 ug/ml.
Assay [6] has the same target. Put plainly: FACS on SKOV-3 cells, 10 ug/ml.
Assay [7] shares this target. In words: FACS on Hela cells, 10 ug/ml.
For assay [8] the target is unchanged. In words: FACS on A2780 cells, 10 ug/ml.
The target is the same in assay [9]. In words: FACS on JeKo-1 cells, 10 ug/ml.
For assay [10] the target is unchanged. In words: FACS on MDA-MB-468 cells, 10 ug/ml.
The target is the same in assay [11]. Put plainly: FACS on MCF-7 cells, 10 ug/ml.
The target is the same in assay [12]. Put plainly: FACS on Calu-6 cells, 10 ug/ml.
The target is the same in assay [13]. In words: FACS on MDA-MB-231 cells, 10 ug/ml.
Assay [14] has the same target. In words: FACS on NCI-N87 cells, 10 ug/ml.
Assay [15] shares this target. Put plainly: FACS on HCC1187 cells, 10 ug/ml.
The target is the same in assay [16]. Put plainly: FACS on HCC1954 cells, 10 ug/ml.
Assay [17] shares this target. Put plainly: FACS on DLD-1 cells, 10 ug/ml.
Assay [18] has the same target. In words: FACS on A-498 cells, 10 ug/ml.

Sequence of human B7-H3 expressed on the surface of human cancer cell lines (human) (Q5ZPR3 29-534): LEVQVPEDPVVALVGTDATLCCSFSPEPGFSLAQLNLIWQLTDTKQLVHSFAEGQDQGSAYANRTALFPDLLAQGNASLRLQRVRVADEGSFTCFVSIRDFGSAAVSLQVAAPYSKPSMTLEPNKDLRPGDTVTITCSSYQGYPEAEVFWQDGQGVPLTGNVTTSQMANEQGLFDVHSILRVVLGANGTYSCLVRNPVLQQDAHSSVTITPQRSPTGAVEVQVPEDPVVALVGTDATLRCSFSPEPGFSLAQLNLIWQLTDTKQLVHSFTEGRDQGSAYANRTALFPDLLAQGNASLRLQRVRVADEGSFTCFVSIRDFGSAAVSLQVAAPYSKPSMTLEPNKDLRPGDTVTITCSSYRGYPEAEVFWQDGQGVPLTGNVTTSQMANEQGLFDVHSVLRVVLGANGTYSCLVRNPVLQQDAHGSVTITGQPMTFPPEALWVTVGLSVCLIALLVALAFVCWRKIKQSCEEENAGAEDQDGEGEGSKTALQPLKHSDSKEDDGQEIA

B1: 84D (comparison anti-B7-H3 antibody, Enoblituzumab variable regions) (antibody, part only; not given: constant regions, V domains shown, not shown: another chain or arm of the molecule)
VH: EVQLVESGGGLVQPGGSLRLSCAASGFTFSSFGMHWVRQAPGKGLEWVAYISSDSSAIYYADTVKGRFTISRDNAKNSLYLQMNSLRDEDTAVYYCGRGRENIYYGSRLDYWGQGTTVTVSS
VL: DIQLTQSPSFLSASVGDRVTITCKASQNVDTNVAWYQQKPGKAPKALIYSASYRYSGVPSRFSGSGSGTDFTLTISSLQPEDFATYYCQQYNNYPFTFGQGTKLEIK
B1: the MFI Ratio in assay [1] was determined as 13.7; in [2] it was 5.9; in assay [3], 9; in assay [4], 8.9; in assay [5], 20; in assay [6], 11.9. For the same molecule, the MFI Ratio in assay [7] stood at 23.5; in assay [8] it was 13.1; in assay [9], 2.9; in assay [10] it was 8.6; in [11] it was 78; in [12] it was 23.2. Further, the MFI Ratio in assay [13] was 5.4; in assay [14] it was 12.8; in assay [15] it was 14.9; in [16], 14; in assay [17], 10.7; in assay [18], 24.
